Like-named read-outs stand apart in the source and are kept apart here.

The results in this text go back to patent US20240043533A1 (NGM BIOPHARMACEUTICALS, published 2024).

Assay [1] deals with T1, extracellular domain of cyno ILT3 (cynoILT3-ECD) (cynomolgus monkey).
T1 chain: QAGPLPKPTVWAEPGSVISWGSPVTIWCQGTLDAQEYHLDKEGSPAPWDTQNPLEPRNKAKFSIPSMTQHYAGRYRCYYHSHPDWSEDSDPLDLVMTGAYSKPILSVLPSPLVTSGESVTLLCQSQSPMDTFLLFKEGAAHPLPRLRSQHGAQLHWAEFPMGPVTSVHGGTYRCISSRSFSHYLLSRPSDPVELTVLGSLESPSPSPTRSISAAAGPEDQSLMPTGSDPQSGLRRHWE
In words: SPR (Biacore), antibody captured via anti-Fc on CM5 chip, soluble ILT3-ECD injected, 37 C. The method, then: (§1) The binding affinities of anti-ILT3 antibodies to human ILT3 and cyno ILT3 were measured using a Biacore system (GE Healthcare LifeSciences). Briefly, anti-Fc antibody (Sigma-Aldrich) was immobilized on all four flow cells of a CM5 chip using amine coupling reagents (GE Healthcare LifeSciences). Antibodies were captured on flow cells 2, 3, and 4 using flow cell 1 as a reference. Concentrations ranging from 3.3-10 nM of human or cyno ILT3-ECD were injected at a flow rate of 50 μL/min at 37° C. Kinetic data were collected over time and fit using the simultaneous global fit equation to yield affinity constants (KD values) for each antibody.
(§2) The binding affinity of Hz5A7.v5 to human ILT3 and cyno ILT3 was determined using a Biacore system as described herein and compared with the binding affinity of the parental chimeric 5A7 (ch5A7) antibody and humanized 5A7 without any CDR modifications (Hz5A7.v1) (see Table 12).

Assay [2] deals with T2, extracellular domain of human ILT3 (huILT3-ECD) (human, UniProt Q8NHJ6 22-259).
T2 construct: also called human ILT3-ECD
The description is as above. The method, then: as §1, §2

The target of assay [3] is T3, cynomolgus ILT3 expressed on cells (THP-1 reporter cells transduced with cyno ILT3); cyno monocyte-derived … (cynomolgus monkey).
T3 chain: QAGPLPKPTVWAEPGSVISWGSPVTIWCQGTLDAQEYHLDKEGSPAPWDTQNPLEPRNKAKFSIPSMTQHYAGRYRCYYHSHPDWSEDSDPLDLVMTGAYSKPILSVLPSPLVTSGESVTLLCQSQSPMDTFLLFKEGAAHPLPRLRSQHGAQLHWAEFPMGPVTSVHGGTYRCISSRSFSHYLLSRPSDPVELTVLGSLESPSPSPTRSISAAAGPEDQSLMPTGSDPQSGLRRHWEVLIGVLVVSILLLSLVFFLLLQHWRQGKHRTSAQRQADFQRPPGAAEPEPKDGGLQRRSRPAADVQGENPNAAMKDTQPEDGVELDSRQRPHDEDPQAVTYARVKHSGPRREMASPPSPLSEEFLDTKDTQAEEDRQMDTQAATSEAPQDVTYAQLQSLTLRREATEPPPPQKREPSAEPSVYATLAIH
As to the kind of experiment: cell-based or functional assay.

The target in a further assay is T4, collagen type IV.
T4 construct: Control surface in the Biacore experiment; also called collagen IV
In words: SPR (Biacore), collagen type IV amine-coupled on CM5 chip, LAIR1ECD-Fc injected at 125-4000 nM, 37 C. The method, then:
(§3) The binding of ILT3 to fibronectin was evaluated by Biacore. Human plasma fibronectin was immobilized onto a CM5 sensor chip surface (flow cell 2) using standard amine coupling chemistry. Collagen type IV was immobilized onto flow cell 3 and used as a control. Human ILT3ECD-Fc or human LAIR1ECD-Fc were injected over both surfaces at different concentrations (125-4000 nM) at a flow rate of 50 μL/min at 37° C. Kinetic data were collected over time and fit using the simultaneous global fit equation to yield affinity constants (KD values) for each antibody.
Background: Surface plasmon resonance follows binding to a sensor surface in real time, without labels.

Assay [4] addresses T5, human plasma-derived fibronectin (Millipore) (human, UniProt P02751 32-2477).
T5 construct: Bought protein; also called human plasma fibronectin; human fibronectin
As to the kind of experiment: SPR (Biacore), human plasma fibronectin amine-coupled on CM5 chip, ECD-Fc injected, 37 C. The method, then: as §3

In a further assay the target is T6, human LILRA2 (human, UniProt Q8N149 24-483).
T6 construct: whole, on cells
As to the kind of experiment: FACS on cells expressing human LILRA2, labeled anti-mouse Fc secondary antibody. The method, then: (§4) ELISA assays were used to screen antibodies against human ILT3 and human LILRA1,2,4-6. […] These antibodies were rescreened by FACS for binding to human ILT3 and cyno ILT3 expressed on HEK-293T cells. The antibodies that bound to both human and cyno ILT3 were selected. This subset of antibodies were screened by FACS against human LILRB1-5 (ILT2, ILT4, ILT5, ILT3, and LILRB5, respectively), cyno LILRB5, and human LILRA1,2,4-6. For FACS screening, each antibody was incubated with cells expressing human ILT3, cyno ILT3, one of the LILRA proteins, or one of the LILRB proteins for 30 minutes at 4° C. After washing, the cells were incubated with labeled anti-mouse Fc antibody for 30 minutes at 4° C. After washing, cells were analyzed on a flow cytometer. Antibodies were selected on the criteria of binding to human ILT3, cyno ILT3, no or limited binding to other LILRB proteins, and no or limited binding to LILRA proteins.

Assay [5] addresses ILT3 extracellular domain chimeric receptor on NFAT-GFP reporter cells (human). As to the kind of experiment: cell-based or functional assay.
Assay [6] addresses human ILT3 expressed on myeloid cells (THP-1 cells, primary dendritic cells, macrophages) (human, UniProt Q8NHJ6 22-448). As to the kind of experiment: cell-based or functional assay.
The target of another assay is T7, human LILRA5 (human, UniProt A6NI73 42-299).
T7 construct: whole, on cells
T7 sequence (A6NI73 42-299): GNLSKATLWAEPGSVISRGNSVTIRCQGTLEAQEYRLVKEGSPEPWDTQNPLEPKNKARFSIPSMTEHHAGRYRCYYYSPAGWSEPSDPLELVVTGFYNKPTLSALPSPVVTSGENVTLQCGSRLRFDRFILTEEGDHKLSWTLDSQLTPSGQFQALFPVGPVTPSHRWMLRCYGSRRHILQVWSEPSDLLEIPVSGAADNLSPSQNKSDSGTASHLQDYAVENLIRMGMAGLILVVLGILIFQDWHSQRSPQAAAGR
As to the kind of experiment: FACS on cells expressing human LILRA5, labeled anti-mouse Fc secondary antibody. The method, then: as §4

Another assay has as its target T8, LILRB5 (human, UniProt O75023).
T8 construct: expressed on the cell surface; also called human LILRB5; CD85C
In words: FACS on cells expressing human LILRB5, labeled anti-mouse Fc secondary antibody. The method, then: as §4

The next assay addresses T9, LILRB4.
T9 construct: the construct expressed on the cells is not described further; also called human ILT3 expressed on cells for the FACS screen; ILT3
As to the kind of experiment: FACS on cells expressing human LILRB4 (ILT3), labeled anti-mouse Fc secondary antibody. The method, then:
as §4

Assay [7] has as its target T1, extracellular domain of cyno ILT3 …. In words: SPR (Biacore), antibody captured via anti-Fc on CM5 chip, soluble ILT3-ECD injected, 37 C. The method, then:
as §1

Assay [8] addresses T2, extracellular domain of human ILT3 …. The description is as above. The procedure:
as §1
This is another data set of the same source.

For the next assay, the target named is T10, human LILRB2 (human, UniProt Q8N423 22-597).
T10 construct: whole, on cells; also called ILT4
As to the kind of experiment: FACS on cells expressing human LILRB2, labeled anti-mouse Fc secondary antibody. The procedure: as §4

For the next assay, the target named is T11, human LILRA6 (human, UniProt Q6PI73 24-447, limits assumed).
T11 construct: Read out of the printed 'LILRA1,2,4-6'
As to the kind of experiment: FACS on cells expressing human LILRA6, labeled anti-mouse Fc secondary antibody. The procedure: as §4

The target in the next assay is T12, LILRB3 (human, UniProt O75022).
T12 construct: expressed on the cell surface; also called human LILRB3; ILT5
In words: FACS on cells expressing human LILRB3, labeled anti-mouse Fc secondary antibody. The method, then: as §4

For assay [9], the target named is T13, ILT3ECD-Fc (human ILT3 extracellular domain fused to an immunoglobulin Fc region) (human, UniProt Q8NHJ6 22-259).
T13 construct: also called Human ILT3ECD-Fc; not shown: immunoglobulin Fc region
In words: blocking of the binding of ILT3-ECD-Fc (1 µg/mL) to endogenous fibronectin on Detroit 551 cells; imaging with polyclonal anti-ILT3 and AlexaFluor 647 secondary antibody. The procedure:
FIG. 14. ILT3 binding to endogenously expressed fibronectin. Detroit 551 cells were plated onto poly-D-lysine-coated 384-well plates at 6×10³ cells/well and incubated for two days. Monolayers were rinsed with HBSS containing Mg²⁺ and Ca²⁺. ILT3-ECD-Fc was added to the wells in the presence of ant-ILT3 antibody 16C5, anti-ILT3 antibody ch5A7, or control anti-KLH antibody. The antibodies were serially diluted 3-fold in media containing the ILT3-ECD-Fc (range of 66 nM to 0.27 nM). Cells were incubated for 1 hr at room temperature and then washed three times with HBSS and fixed with 3.7% formalin for 10 min. Monolayers were rinsed with PBS and blocked with 1% BSA in PBS before staining with Hoechst stain and a commercially available polyclonal anti-ILT3 antibody. An AlexaFluor 647-conjugated rabbit anti-goat Fc secondary antibody was added, cells were imaged, and the level of fluorescence was quantified using a CellInsight imaging system.
The Detroit 551 cell line is composed of human skin fibroblasts established from normal fetal tissue. These cells have endogenously produced fibronectin bound to receptors on their surface. […] An AlexaFluor 647-conjugated rabbit anti-goat Fc secondary antibody (Jackson ImmunoResearch Labs) was added, cells were imaged, and the level of fluorescence was quantified using a Celllnsight imaging system.

For the next assay, the target named is T14, human LILRA1 (human, UniProt O75019 17-489).
T14 construct: whole, on cells
T14 sequence (O75019 17-489): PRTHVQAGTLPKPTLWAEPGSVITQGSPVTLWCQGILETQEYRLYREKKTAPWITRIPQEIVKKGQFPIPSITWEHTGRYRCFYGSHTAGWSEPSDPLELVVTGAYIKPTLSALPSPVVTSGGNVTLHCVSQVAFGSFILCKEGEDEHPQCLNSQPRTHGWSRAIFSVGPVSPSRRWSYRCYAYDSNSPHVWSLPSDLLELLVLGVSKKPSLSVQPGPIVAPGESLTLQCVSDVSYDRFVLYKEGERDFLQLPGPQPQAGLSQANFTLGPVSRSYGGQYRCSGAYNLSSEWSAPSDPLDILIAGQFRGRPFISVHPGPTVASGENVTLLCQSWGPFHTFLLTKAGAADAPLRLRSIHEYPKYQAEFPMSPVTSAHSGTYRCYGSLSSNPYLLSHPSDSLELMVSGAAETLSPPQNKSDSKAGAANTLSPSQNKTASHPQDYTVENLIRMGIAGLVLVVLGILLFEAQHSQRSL
As to the kind of experiment: FACS on cells expressing human LILRA1, labeled anti-mouse Fc secondary antibody. The procedure:
as §4

In a further assay the target is T15, Cyno LILRB5 (Macaca fascicularis, UniProt A0A2K5VIP6).
T15 construct: expressed on the cell surface; also called cynomolgus LILRB5
T15 sequence (A0A2K5VIP6 entry or part of it): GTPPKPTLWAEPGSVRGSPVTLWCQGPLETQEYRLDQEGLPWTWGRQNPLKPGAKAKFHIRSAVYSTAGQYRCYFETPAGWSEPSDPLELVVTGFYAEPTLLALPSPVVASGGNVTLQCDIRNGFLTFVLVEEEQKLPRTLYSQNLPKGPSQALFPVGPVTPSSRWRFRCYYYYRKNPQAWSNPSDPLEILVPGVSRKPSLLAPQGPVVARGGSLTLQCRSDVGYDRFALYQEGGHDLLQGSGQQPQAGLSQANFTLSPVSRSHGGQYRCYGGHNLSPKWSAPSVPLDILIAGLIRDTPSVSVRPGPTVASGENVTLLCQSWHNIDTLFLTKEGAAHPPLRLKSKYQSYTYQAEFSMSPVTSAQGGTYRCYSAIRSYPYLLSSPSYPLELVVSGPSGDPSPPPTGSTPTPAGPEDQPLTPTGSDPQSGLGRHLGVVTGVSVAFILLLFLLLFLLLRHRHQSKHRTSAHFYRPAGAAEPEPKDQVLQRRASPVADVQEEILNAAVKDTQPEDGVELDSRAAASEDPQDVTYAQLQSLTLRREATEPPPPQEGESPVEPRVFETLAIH
In words: FACS on cells expressing cyno LILRB5, labeled anti-mouse Fc secondary antibody. The method, then:
as §4

The target of the next assay is T16, human LILRA4 (human, UniProt P59901 24-499).
T16 construct: whole, on cells
T16 sequence (P59901 24-499): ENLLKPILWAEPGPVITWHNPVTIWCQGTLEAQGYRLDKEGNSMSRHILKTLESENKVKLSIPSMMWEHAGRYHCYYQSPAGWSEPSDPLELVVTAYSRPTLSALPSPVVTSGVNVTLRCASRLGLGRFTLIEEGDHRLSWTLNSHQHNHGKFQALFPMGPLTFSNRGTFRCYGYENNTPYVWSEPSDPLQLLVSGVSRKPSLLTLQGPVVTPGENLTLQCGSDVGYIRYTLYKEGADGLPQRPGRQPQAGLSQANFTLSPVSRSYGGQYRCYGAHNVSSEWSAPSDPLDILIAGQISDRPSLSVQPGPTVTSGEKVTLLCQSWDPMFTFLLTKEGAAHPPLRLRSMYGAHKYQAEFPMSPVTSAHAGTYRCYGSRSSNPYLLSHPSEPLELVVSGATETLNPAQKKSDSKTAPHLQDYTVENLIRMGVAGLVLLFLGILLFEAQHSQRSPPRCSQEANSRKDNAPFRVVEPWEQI
As to the kind of experiment: FACS on cells expressing human LILRA4, labeled anti-mouse Fc secondary antibody. The method, then:
as §4

T8 sequence (O75023 24-590 limits assumed): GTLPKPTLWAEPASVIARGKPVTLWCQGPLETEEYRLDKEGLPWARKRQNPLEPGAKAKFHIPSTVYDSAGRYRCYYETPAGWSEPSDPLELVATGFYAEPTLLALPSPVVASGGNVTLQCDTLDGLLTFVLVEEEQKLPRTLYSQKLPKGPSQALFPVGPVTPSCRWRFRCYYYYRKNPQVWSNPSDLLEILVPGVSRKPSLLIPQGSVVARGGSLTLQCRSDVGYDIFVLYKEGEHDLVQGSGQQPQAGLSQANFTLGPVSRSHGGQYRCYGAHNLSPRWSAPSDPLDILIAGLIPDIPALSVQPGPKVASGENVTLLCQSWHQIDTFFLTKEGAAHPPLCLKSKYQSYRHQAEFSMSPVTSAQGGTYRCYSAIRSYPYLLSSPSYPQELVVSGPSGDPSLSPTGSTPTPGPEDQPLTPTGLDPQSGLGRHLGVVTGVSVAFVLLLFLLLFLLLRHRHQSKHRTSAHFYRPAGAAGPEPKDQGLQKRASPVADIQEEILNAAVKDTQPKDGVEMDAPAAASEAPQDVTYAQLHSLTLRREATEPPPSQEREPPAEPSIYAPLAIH
T5 sequence (P02751 32-2477 limits assumed): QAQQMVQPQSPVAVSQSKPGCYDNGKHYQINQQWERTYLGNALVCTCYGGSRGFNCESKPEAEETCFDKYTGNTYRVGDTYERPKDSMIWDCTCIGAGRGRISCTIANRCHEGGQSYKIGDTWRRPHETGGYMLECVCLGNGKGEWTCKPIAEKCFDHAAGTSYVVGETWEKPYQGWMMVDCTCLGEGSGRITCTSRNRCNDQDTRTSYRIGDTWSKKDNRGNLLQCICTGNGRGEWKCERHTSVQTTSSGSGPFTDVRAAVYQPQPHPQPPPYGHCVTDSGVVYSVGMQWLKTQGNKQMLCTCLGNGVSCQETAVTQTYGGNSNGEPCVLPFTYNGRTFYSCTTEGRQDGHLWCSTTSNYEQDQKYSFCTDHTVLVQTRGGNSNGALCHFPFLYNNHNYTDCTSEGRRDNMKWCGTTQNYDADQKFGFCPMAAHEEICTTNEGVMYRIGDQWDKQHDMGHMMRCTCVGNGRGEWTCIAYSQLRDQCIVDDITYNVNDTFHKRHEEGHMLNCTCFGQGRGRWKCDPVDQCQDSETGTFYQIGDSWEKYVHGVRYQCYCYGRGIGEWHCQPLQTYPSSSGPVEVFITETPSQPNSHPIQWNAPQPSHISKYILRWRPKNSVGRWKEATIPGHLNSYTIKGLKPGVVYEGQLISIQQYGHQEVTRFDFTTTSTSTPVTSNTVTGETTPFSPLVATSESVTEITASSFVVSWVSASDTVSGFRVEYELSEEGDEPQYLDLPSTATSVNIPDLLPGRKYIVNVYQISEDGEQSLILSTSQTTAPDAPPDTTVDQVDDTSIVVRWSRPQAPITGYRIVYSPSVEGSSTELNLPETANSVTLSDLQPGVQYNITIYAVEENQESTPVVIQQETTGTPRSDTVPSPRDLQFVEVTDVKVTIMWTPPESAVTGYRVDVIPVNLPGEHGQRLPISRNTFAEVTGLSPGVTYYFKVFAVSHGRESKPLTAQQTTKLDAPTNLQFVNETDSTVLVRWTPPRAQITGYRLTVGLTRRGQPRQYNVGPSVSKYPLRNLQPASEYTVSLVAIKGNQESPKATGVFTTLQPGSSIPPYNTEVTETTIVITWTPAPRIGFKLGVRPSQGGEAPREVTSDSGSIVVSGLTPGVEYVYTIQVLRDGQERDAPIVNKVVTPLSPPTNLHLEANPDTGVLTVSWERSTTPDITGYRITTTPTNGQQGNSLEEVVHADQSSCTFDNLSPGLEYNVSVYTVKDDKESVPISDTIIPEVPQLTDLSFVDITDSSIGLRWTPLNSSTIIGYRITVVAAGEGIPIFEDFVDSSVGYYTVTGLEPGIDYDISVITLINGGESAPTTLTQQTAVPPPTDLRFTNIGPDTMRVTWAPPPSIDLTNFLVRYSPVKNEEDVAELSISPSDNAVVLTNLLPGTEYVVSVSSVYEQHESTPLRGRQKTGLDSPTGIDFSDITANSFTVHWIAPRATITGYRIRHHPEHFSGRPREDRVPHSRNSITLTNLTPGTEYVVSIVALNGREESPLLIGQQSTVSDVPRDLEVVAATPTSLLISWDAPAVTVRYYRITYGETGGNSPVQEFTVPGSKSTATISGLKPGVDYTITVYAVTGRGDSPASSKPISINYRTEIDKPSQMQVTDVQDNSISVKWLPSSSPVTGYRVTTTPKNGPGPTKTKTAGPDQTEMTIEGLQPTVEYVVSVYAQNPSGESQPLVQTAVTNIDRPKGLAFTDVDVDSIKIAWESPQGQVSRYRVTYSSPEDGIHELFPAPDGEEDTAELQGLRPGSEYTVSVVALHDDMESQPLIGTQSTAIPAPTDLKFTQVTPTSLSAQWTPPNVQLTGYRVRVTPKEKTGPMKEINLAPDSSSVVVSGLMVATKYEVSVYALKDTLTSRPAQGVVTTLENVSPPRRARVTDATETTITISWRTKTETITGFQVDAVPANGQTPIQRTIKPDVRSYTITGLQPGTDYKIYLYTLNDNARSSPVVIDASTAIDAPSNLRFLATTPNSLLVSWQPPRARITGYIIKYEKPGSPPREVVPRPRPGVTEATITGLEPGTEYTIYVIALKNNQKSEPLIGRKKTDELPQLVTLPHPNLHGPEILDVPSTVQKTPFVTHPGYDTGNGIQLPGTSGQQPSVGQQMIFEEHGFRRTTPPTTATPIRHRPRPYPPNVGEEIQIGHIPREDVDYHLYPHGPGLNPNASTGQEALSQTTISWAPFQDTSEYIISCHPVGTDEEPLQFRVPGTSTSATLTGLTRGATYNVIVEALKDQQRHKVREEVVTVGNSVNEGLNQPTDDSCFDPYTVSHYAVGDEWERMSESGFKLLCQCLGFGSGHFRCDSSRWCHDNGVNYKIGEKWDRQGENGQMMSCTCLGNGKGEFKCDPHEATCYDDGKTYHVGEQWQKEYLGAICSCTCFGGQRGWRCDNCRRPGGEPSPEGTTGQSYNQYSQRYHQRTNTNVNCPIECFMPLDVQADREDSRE
Sequence of ILT3 extracellular domain chimeric receptor on NFAT-GFP reporter cells (human) (Q8NHJ6 22-259, change not shown): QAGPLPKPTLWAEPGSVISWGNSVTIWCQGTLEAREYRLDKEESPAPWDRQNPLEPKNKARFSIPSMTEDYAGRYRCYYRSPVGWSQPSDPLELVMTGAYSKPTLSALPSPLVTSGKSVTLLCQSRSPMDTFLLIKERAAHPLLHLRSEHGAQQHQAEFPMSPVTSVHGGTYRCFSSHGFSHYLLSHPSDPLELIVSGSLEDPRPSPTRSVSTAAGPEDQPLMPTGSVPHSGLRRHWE

B1: anti-ILT3 antibody Hz5A7.v5 (antibody, human IgG1, kappa, N297G, V domains shown)
VH: EVQLVESGGGLVQPGGSLRLSCAASGFTFSSYGMSWVRQAPGKGLEWVATISGGGSYTNYPDSVKGRFTISRDNAKNSLYLQMNSLRAEDTAVYYCARREWRYTLYAMDYWGQGTTVTVSS
VL: DIQLTQSPSFLSASVGDRVTITCRASESVESYGSSFMHWYQQKPGKAPKLLIYLTSNLESGVPSRFSGSGSGTEFTLTISSLQPEDFATYYCQQNNEDPFTFGQGTKLEIKR
notes: Humanized 5A7 variant
What is called Kd is the equilibrium constant for the complex coming apart. A higher Kd goes with a looser complex. As usually defined, the koff is the rate constant with which the complex falls apart. Higher therefore signals fast dissociation. One may read the kon as the rate constant with which the complex forms. Low values mean slower complex formation, high ones faster complex formation. For orientation: EC50 (read off the curve) means the concentration needed to bring the measured effect to its halfway point. A low value points to higher potency in that assay. As for B1, in assay [1], binding was characterised by a dissociation constant (Kd) of 0.7 nM, the off-rate constant (koff) came out at 0.0071 s⁻¹ and the kon worked out at 1.1e+07 M⁻¹ s⁻¹. Moreover, in assay [2], the affinity, expressed as Kd, was 0.28 nM; the koff was 0.00081 s⁻¹; the kon stood at 2.8e+06 M⁻¹ s⁻¹. Also, in assay [3], the “EC50 (read off the curve)” value is about 0.2 nM.

B2: human LAIR1ECD-Fc (Fc fusion, UniProt Q6GTX8 22-165, looked up)
chain: QEEDLPRPSISAEPGTVIPLGSHVTFVCRGPVGVQTFRLERDSRSTYNDTEDVSQASPSESEARFRIDSVREGNAGLYRCIYYKPPKWSEQSDYLELLVKESSGGPDSPDTEPGSSAGPTQRPSDNSHNEHAPASQGLKAEHLY
notes: extracellular domain; not shown: Fc region
The molecule B2 had a Kd in the assay with collagen type IV of at least 5000 nM. The binding result in [4] is reported as “no binding (tested: 125-4000 nM)”.

B3: anti-ILT3 antibody 16C5 (antibody, V domains shown)
VH: EVQLQQSGPELVKPGASVKISCKASGYTFTDYNMDWVKQSHGKSLEWIGYIYPSNGGTGYNQKFKSKATLTVDKSSNTAYMELHSLTSEDSAVYYCARVPYYDYLYYYAMDYWGQGTSVTVSS
VL: QIVLSQSPAILSASPGEKVTMACRASSSVSFMHWYQQKPGSSPQPWIYATSNLASGVPARFSGSGSGTSYSLTISRVEAEDAATYYCQQWSTNPYMYTFGGGTKLEIK
notes: Mouse monoclonal antibody from hybridoma
In the case of B3, the binding result was “no binding (tested: log [Ab] about -7.2 M (about 6e-8 M))” with human LILRA2; “binds” with human LILRA5; “no binding (tested: log [Ab] about -7.2 M (about 6e-8 M))” in the assay with LILRB5; “binds” with LILRB4; “no binding (tested: log [Ab] about -7.2 M (about 6e-8 M))” with human LILRB2; “no binding (tested: log [Ab] about -7.2 M (about 6e-8 M))” with human LILRA6. Further, the binding result with LILRB3 is “no binding (tested: log [Ab] about -7.2 M (about 6e-8 M))”; in [9], “binds”; in the assay with human LILRA1, “no binding (tested: log [Ab] about -7.2 M (about 6e-8 M))”; with human LILRA4, “no binding (tested: log [Ab] about -7.2 M (about 6e-8 M))”. Moreover, the “IC50 (read off the curve)” value in assay [5] is about 0.2 nM. Further, the entries for the “EC50 (read off the curve)” value (in assay [6]; in the assay with Cyno LILRB5) were about 2 nM and about 0.9 nM, respectively. Further, the Kd in assay [7] amounted to 0.31 nM; in assay [8], 1.8 nM. The figures for the koff in assay [7] and in assay [8] were 9e-05 s⁻¹ and 0.0002 s⁻¹, respectively. The kon in [7] is 290000 M⁻¹ s⁻¹; in assay [8] it was 110000 M⁻¹ s⁻¹.
